US20230064326A1, “OPTOGENETIC COMPOSITIONS COMPRISING A CBh PROMOTER SEQUENCE AND METHODS FOR USE” (Vedere Bio II, Inc., priority 2021, published 2023)

System: NHP retinas
Assay: SNAP immunostaining to visualize SNAP-mGluR2 expression in NHP retinas
Type: in vivo, Cynomolgus macaques and African Green monkeys
Details: non-human primates; central and peripheral retina

B1: CBh promoter: promoter of SEQ ID NO: 1: CMV enhancer, chicken beta actin promoter and hybrid intron; in b245 driving SNAP-mGluR2 (nucleic acid)
DNA: CGTTACATAACTTACGGTAAATGGCCCGCCTGGCTGACCGCCCAACGACCCCCGCCCATTGACGTCAATAATGACGTATGTTCCCATAGTAACGCCAATAGGGACTTTCCATTGACGTCAATGGGTGGAGTATTTACGGTAAACTGCCCACTTGGCAGTACATCAAGTGTATCATATGCCAAGTACGCCCCCTATTGACGTCAATGACGGTAAATGGCCCGCCTGGCATTATGCCCAGTACATGACCTTATGGGACTTTCCTACTTGGCAGTACATCTACGTATTAGTCATCGCTATTACCATGGTCGAGGTGAGCCCCACGTTCTGCTTCACTCTCCCCATCTCCCCCCCCTCCCCACCCCCAATTTTGTATTTATTTATTTTTTAATTATTTTGTGCAGCGATGGGGGCGGGGGGGGGGGGGGGGCGCGCGCCAGGCGGGGCGGGGCGGGGCGAGGGGCGGGGCGGGGCGAGGCGGAGAGGTGCGGCGGCAGCCAATCAGAGCGGCGCGCTCCGAAAGTTTCCTTTTATGGCGAGGCGGCGGCGGCGGCGGCCCTATAAAAAGCGAAGCGCGCGGCGGGCGGGAGTCGCTGCGACGCTGCCTTCGCCCCGTGCCCCGCTCCGCCGCCGCCTCGCGCCGCCCGCCCCGGCTCTGACTGACCGCGTTACTCCCACAGGTGAGCGGGCGGGACGGCCCTTCTCCTCCGGGCTGTAATTAGCTGAGCAAGAGGTAAGGGTTTAAGGGATGGTTGGTTGGTGGGGTATTAATGTTTAATTACCTGGAGCACCTGCCTGAAATCACTTTTTTTCAG
modifications: misc_feature 1..812 CBH promoter sequence
notes: in b245 driving SNAP-mGluR2
In the case of B1, the “expression of a SNAP-mGluR2 transgene, promoter comparison (CBh vs synapsin)” value is reported as “much more robust expression”.
